Data on five sequences can be found in the supplement of paper PMC5998384.

Data set [1] has as its system HeLa Kyoto. As to the kind of experiment: thermal stability score vs G1/S (z-score of summed log2 fold changes over temperatures); higher = more thermally stable than in G1/S.
For data set [2], the system named is HeLa Kyoto. Put plainly: solubility in G1/S (NP-40 vs SDS abundance) (log2 ratio); higher = more soluble. The following applies: cell cycle stage: G1/S.
Data set [3] has as its system HeLa Kyoto. Put plainly: melting temperature (median over replicates), in situ; higher = more thermally stable.
Data set [4] relates to HeLa Kyoto. As to the kind of experiment: solubility change mitosis vs G1/S (difference of NP-40 vs SDS log2 ratios) (log2 ratio difference); higher = more soluble in mitosis.
The mark [5] stands for this setting: cell cycle stage: early G1 (4.5 h after nocodazole release).
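Throughout, for melting temperature (median over replicates), in situ: HeLa Kyoto cells synchronized by double thymidine or nocodazole block, proteins quantified by TMT10plex mass spectrometry, three independent biological replicates.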
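Throughout, for solubility change mitosis vs G1/S (difference of NP-40 vs SDS log2 ratios): synchronized HeLa Kyoto cells (double thymidine block for G1/S, nocodazole release for mitosis), protein amounts in NP-40 versus SDS lysates quantified by mass spectrometry, three biological replicates.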
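Throughout, for solubility in G1/S (NP-40 vs SDS abundance): HeLa Kyoto cells arrested at G1/S by double thymidine block, proteins quantified by TMT10plex mass spectrometry in mild NP-40 versus SDS extracts, three biological replicates.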
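Throughout, for thermal stability score vs G1/S (z-score of summed log2 fold changes over temperatures): synchronized HeLa Kyoto cells, proteins quantified by TMT10plex mass spectrometry, three biological replicates, mitosis taken 0.5 h after nocodazole release, G1/S directly after double thymidine block.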

Take “MFSQQQQQQLQQQQQQLQQLQQQQLQQQQLQQQQLLQLQQLLQQSPPQAPLPMAVSRGLPPQQPQQPLLNLQGTNSASLLNGSMLQRALLLQQLQGLDQFAMPPATYDTAGLTMPTATLGNLRGYGMASPGLAAPSLTPPQLATPNLQQFFPQATRQSLLGPPPVGVPMNPSQFNLSGRNPQKQARTSSSTTPNRKDSSSQTMPVEDKSDPPEGSEEAAEPRMDTPEDQDLPPCPEDIAKEKRTPAPEPEPCEASELPAKRLRSSEEPTEKEPPGQLQVKAQPQARMTVPKQTQTPDLLPEALEAQVLPRFQPRVLQVQAQVQSQTQPRIPSTDTQVQPKLQKQAQTQTSPEHLVLQQKQVQPQLQQEAEPQKQVQPQVQPQAHSQGPRQVQLQQEAEPLKQVQPQVQPQAHSQPPRQVQLQLQKQVQTQTYPQVHTQAQPSVQPQEHPPAQVSVQPPEQTHEQPHTQPQVSLLAPEQTPVVVHVCGLEMPPDAVEAGGGMEKTLPEPVGTQVSMEEIQNESACGLDVGECENRAREMPGVWGAGGSLKVTILQSSDSRAFSTVPLTPVPRPSDSVSSTPAATSTPSKQALQFFCYICKASCSSQQEFQDHMSEPQHQQRLGEIQHMSQACLLSLLPVPRDVLETEDEEPPPRRWCNTCQLYYMGDLIQHRRTQDHKIAKQSLRPFCTVCNRYFKTPRKFVEHVKSQGHKDKAKELKSLEKEIAGQDEDHFITVDAVGCFEGDEEEEEDDEDEEEIEVEEELCKQVRSRDISREEWKGSETYSPNTAYGVDFLVPVMGYICRICHKFYHSNSGAQLSHCKSLGHFENLQKYKAAKNPSPTTRPVSRRCAINARNALTALFTSSGRPPSQPNTQDKTPSKVTARPSQPPLPRRSTRLKT [CIZ1]”: the thermal stability score in the data set with HeLa Kyoto [1] (setting [5]) amounted to 0.59; in the data set on HeLa Kyoto [1] (cell cycle stage: mitosis) it was 2.85. In the data set with HeLa Kyoto [2], the “solubility in G1/S (log2)” value was -0.24. Also, the melting temperature with HeLa Kyoto [3] (cell cycle stage: G1/S) amounted to 51.5 °C; in the data set with HeLa Kyoto [3] (cell cycle stage: mitosis), 53.7 °C. Besides, the “solubility change mitosis (log2)” value with HeLa Kyoto [4] amounted to 0.168.
For “MSEKENNFPPLPKFIPVKPCFYQNFSDEIPVEHQVLVKRIYRLWMFYCATLGVNLIACLAWWIGGGSGTNFGLAFVWLLLFTPCGYVCWFRPVYKAFRADSSFNFMAFFFIFGAQFVLTVIQAIGFSGWGACGWLSAIGFFQYSPGAAVVMLLPAIMFSVSAAMMAIAIMKVHRIYRGAGGSFQKAQTEWNTGTWRNPPSREAQYNNFSGNSLPEYPTVPSYPGSGQWP [SCAMP4]”, the thermal stability score is -1.67 in the data set on HeLa Kyoto [1] (setting [5]) and -2.1 in the data set with HeLa Kyoto [1] (cell cycle stage: mitosis). Also, the “solubility in G1/S (log2)” value in the data set on HeLa Kyoto [2] was -0.117. Besides, the melting temperature in the data set with HeLa Kyoto [3] (cell cycle stage: G1/S) was found to be 57 °C; in the data set on HeLa Kyoto [3] (cell cycle stage: mitosis), 60.3 °C. In the data set with HeLa Kyoto [4], the “solubility change mitosis (log2)” value is 0.144.
Turning to “MWLWEDQGGLLGPFSFLLLVLLLVTRSPVNACLLTGSLFVLLRVFSFEPVPSCRALQVLKPRDRISAIAHRGGSHDAPENTLAAIRQAAKNGATGVELDIEFTSDGIPVLMHDNTVDRTTDGTGRLCDLTFEQIRKLNPAANHRLRNDFPDEKIPTLREAVAECLNHNLTIFFDVKGHAHKATEALKKMYMEFPQLYNNSVVCSFLPEVIYKMRQTDRDVITALTHRPWSLSHTGDGKPRYDTFWKHFIFVMMDILLDWSMHNILWYLCGISAFLMQKDFVSPAYLKKWSAKGIQVVGWTVNTFDEKSYYESHLGSSYITDSMVEDCEPHF [GDE1]”, the thermal stability score in the data set with HeLa Kyoto [1] (setting [5]) is 0.685; with HeLa Kyoto [1] (cell cycle stage: mitosis), -1.42. Besides, in the data set on HeLa Kyoto [2], the “solubility in G1/S (log2)” value was 0.138. Further, the melting temperature with HeLa Kyoto [3] (cell cycle stage: G1/S) was found to be 51.5 °C; with HeLa Kyoto [3] (cell cycle stage: mitosis), 55.9 °C. For the same sequence, the “solubility change mitosis (log2)” value in the data set on HeLa Kyoto [4] is -0.1.
Regarding “MDTESTYSGYSYYSSHSKKSHRQGERTRERHKSPRNKDGRGSEKSVTIQPPTGEPLLGNDSTRTEEVQDDNWGETTTAITGTSEHSISQEDIARISKDMEDSVGLDCKRYLGLTVASFLGLLVFLTPIAFILLPPILWRDELEPCGTICEGLFISMAFKLLILLIGTWALFFRKRRADMPRVFVFRALLLVLIFLFVVSYWLFYGVRILDSRDRNYQGIVQYAVSLVDALLFIHYLAIVLLELRQLQPMFTLQVVRSTDGESRFYSLGHLSIQRAALVVLENYYKDFTIYNPNLLTASKFRAAKHMAGLKVYNVDGPSNNATGQSRAMIAAAARRRDSSHNELYYEEAEHERRVKKRKARLVVAVEEAFIHIQRLQAEEQQKAPGEVMDPREAAQAIFPSMARALQKYLRITRQQNYHSMESILQHLAFCITNGMTPKAFLERYLSAGPTLQYDKDRWLSTQWRLVSDEAVTNGLRDGIVFVLKCLDFSLVVNVKKIPFIILSEEFIDPKSHKFVLRLQSETSV [VANGL1]”, the thermal stability score is -1.85 in the data set with HeLa Kyoto [1] (setting [5]) and -3.36 with HeLa Kyoto [1] (cell cycle stage: mitosis). In addition, the “solubility in G1/S (log2)” value in the data set with HeLa Kyoto [2] was -0.322. The figures for the melting temperature with HeLa Kyoto [3] (cell cycle stage: G1/S) and in the data set on HeLa Kyoto [3] (cell cycle stage: mitosis) were 56 °C and 54.7 °C, respectively. For the same sequence, the “solubility change mitosis (log2)” value with HeLa Kyoto [4] stood at 0.00763.
As for “MEASWRQVAGGRGRSRGRATAAPSGNGVHLRGAGGGREKGSVGAVPSGTSPGGVATTAAAGSRHSPAGSQALQTTAASELMSQKKFEEIKKANQAAARKLVEEQFSSSSEEGDEDFEGKQGKILANTFITYTTQTDGDTRELERTKQYVNEAFQAGAMTCLICIASVKRNQAVWSCSGCFCIFHMPCIQKWAKDSQFLVSSVTDDDFGKKDCPWPCPKCRFEYKRSETPSRYYCYCGKVEDPPLDPWLVPHSCGQVCEREFKPPCGHKCLLLCHPGPCPPCPKMVTTTCYCKKAKPIPRRCSAKEWSCQLPCGQKLLCGQHKCENPCHAGSCQPCPRVSRQKCVCGKKVAERSCASPLWHCDQVCGKTLPCGNHTCEQVCHVGACGECPRSGKRFCPCQKSKFSLPCTEDVPTCGDSCDKVLECGIHRCSQRCHRGPCETCRQEVEKHCRCGKHTKRMPCHKPYLCETKCVKMRDCQKHQCRRKCCPGNCPPCDQNCGRTLGCRNHKCPSVCHRGSCYPCPETVDVKCNCGNTKVTVPCGRERTTRPPKCKEQCSRPPTCHHTSQEKHRCHFGSCPPCHQPCQKVLEKCGHLCPAPCHDQALIKQTGRHQPTGPWEQPSEPAFIQTALPCPPCQVPIPMECLGKHEVSPLPCHAVGPYSCKRVCGRILDCQNHTCMKECHKVTKTDGCTGKNKAGPECLHCEEGCSKSRPLGCLHPCILRCHPGECPPCVQMLRIKCHCKITSLYVECRKITTADVNEKNLLSCCKNQCPKELPCGHRCKEMCHPGECPFNCNQKVKLRCPCKRIKKELQCNKVRENQVSIECDTTCKEMKRKASEIKEAEAKAALEEEKRRQQAELEAFENRLKGRRKKNRKRDEVAVELSLWQKHKYYLISVCGVVVVVFAWYITHDVN [NFXL1]”, the thermal stability score was found to be 1.02 in the data set on HeLa Kyoto [1] (setting [5]) and 1.56 in the data set on HeLa Kyoto [1] (cell cycle stage: mitosis). In the data set on HeLa Kyoto [2], the “solubility in G1/S (log2)” value was -0.509. For the same sequence, the values for the melting temperature in the data set with HeLa Kyoto [3] (cell cycle stage: G1/S) and in the data set with HeLa Kyoto [3] (cell cycle stage: mitosis) were 50.2 °C and 50.5 °C, respectively. Besides, the “solubility change mitosis (log2)” value in the data set on HeLa Kyoto [4] was found to be 0.0441.
